Laboratory results as given in US20240383984A1 (Genentech, published 2024).

Key:
[1] = target: T1, human FcRH5 protein fragment (soluble) (human, UniProt Q96RD9 16-851); experiment: SPR (BIACORE), TDB captured as ligand, Hu FcRH5 as analyte, 25 °C, 1:1 binding model
T1 construct: whole entry named; also called soluble human FcRH5; Human FcRH5 (BIACORE analyte)
T1 sequence: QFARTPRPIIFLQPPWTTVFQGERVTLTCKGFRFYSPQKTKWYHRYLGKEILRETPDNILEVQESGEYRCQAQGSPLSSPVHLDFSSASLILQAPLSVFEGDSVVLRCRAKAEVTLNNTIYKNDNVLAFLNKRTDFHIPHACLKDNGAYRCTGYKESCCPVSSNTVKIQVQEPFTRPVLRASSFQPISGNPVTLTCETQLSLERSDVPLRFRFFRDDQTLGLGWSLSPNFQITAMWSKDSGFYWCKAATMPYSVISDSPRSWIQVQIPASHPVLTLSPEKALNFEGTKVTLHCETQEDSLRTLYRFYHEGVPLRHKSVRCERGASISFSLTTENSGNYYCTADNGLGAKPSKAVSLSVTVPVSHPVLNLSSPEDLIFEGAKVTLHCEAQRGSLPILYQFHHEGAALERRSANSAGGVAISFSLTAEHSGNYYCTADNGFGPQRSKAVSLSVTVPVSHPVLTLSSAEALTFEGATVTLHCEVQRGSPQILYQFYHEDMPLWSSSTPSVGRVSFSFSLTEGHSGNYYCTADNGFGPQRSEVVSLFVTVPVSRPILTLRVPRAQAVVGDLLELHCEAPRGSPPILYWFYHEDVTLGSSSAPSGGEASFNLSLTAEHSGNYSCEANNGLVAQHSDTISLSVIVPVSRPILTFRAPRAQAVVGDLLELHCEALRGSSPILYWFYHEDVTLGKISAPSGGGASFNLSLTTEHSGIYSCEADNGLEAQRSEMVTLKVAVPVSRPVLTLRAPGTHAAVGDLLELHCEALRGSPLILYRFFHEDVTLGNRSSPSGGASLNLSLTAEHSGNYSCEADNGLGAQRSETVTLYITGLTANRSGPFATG

[2] = target: T2, cynomolgus FcRH5 protein fragment (soluble) (cynomolgus monkey); experiment: SPR (BIACORE), hIgG capture format, 1:1 binding model, monovalent affinity; same numbers as FIG. 10B, Cyno FcRH5 panel
T2 construct: whole entry named; also called Cyno FcRH5 (BIACORE analyte)
T2 chain: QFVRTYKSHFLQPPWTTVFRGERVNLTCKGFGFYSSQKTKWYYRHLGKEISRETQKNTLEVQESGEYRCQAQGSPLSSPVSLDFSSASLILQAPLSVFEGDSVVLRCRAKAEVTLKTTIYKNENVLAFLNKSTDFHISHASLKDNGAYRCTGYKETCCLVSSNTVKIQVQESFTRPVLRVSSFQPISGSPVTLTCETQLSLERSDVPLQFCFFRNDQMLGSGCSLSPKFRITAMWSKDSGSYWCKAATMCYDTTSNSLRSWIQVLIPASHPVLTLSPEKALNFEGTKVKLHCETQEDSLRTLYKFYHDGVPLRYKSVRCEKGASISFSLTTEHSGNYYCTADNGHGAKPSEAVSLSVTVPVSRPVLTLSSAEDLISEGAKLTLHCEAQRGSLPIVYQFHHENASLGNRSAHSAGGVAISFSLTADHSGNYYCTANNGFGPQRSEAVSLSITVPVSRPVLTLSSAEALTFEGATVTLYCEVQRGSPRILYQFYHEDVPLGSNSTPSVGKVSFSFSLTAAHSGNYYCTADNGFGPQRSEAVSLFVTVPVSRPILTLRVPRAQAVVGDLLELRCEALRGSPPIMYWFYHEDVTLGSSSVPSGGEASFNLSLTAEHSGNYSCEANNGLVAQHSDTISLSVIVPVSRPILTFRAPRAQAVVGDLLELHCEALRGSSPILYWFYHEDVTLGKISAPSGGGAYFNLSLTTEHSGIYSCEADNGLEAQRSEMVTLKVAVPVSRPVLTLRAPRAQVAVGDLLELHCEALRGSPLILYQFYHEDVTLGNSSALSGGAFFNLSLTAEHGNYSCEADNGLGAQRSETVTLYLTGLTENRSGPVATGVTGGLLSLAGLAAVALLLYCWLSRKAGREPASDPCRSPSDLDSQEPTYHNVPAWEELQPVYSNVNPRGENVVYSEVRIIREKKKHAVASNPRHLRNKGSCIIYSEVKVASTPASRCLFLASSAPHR
Protocol: Kinetic characterization experiments were carried out (see Table 8). In these experiments, binding of soluble FcRH5 protein fragment to purified antibodies in human TDB antibody format was analyzed at six different non-zero concentrations (a 1:3 dilution series, one concentration injected twice as a replicate). Flow rate was set at 40 μl/min and association and dissociation monitored for 600 s.

[3] = target: T3, cynomolgus E11 domain protein (cynomolgus monkey); experiment: SPR, IgG capture
T3 construct: whole entry named; also called cyno E11
T3 chain: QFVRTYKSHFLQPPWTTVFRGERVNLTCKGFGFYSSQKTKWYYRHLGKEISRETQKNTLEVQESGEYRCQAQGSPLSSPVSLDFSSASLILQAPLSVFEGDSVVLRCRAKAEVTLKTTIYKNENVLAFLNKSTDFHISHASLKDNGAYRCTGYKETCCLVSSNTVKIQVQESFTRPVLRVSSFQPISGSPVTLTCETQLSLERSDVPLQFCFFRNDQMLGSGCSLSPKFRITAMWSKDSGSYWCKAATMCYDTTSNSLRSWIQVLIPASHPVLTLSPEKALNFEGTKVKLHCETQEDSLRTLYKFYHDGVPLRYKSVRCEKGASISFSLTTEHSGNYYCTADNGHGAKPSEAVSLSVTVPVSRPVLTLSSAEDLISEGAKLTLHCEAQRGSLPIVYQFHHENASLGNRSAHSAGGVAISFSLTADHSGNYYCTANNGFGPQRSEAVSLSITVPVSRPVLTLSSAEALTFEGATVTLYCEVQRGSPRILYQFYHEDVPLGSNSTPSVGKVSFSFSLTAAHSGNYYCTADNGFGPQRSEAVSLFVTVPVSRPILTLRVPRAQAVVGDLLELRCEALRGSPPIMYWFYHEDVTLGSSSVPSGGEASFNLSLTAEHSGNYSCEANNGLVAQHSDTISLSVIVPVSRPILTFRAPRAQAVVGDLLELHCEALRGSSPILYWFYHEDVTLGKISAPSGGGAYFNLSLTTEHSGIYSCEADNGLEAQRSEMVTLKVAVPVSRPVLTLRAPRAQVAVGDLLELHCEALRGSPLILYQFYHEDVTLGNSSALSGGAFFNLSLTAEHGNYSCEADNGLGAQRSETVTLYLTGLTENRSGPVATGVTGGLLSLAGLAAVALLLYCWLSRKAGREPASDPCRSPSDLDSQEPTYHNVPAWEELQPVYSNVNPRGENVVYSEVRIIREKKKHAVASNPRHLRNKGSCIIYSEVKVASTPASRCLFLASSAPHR
Protocol: Briefly, test antibodies were captured on flow cells 2, 3 or 4 with flow cell 1 as a reference on a protein A Series S CM5 chip (GE Life Sciences, Piscataway, NJ). An FcRH5 protein fragment was used as analyte, with a flow rate of 30 μl/minute. Between injections the capture surface was regenerated by a 30 second injection of 10 mM glycine, pH 1.5 at a flow rate of 10 μl/minute. Interactions were assessed at 25° C. in 10 mM HEPES pH 7.4, 150 mM NaCl, 0.05% Tween 20 (HBSP). Reference data from the reference flow cell and from injection of buffer alone was subtracted prior to kinetic analysis. Kinetic information was calculated by fitting data to a 1:1 binding model. Reference subtraction and data fitting were performed using BIAevaluation software (GE Life Sciences, Piscataway, NJ).

[4] = target: T4, cynomolgus FcRH5 (full-length, on cells) (cynomolgus monkey); experiment: FACS, SVT2 cells
T4 construct: also called SVT2-Cyno-FcRH5; cyno FcRH5
T4 chain: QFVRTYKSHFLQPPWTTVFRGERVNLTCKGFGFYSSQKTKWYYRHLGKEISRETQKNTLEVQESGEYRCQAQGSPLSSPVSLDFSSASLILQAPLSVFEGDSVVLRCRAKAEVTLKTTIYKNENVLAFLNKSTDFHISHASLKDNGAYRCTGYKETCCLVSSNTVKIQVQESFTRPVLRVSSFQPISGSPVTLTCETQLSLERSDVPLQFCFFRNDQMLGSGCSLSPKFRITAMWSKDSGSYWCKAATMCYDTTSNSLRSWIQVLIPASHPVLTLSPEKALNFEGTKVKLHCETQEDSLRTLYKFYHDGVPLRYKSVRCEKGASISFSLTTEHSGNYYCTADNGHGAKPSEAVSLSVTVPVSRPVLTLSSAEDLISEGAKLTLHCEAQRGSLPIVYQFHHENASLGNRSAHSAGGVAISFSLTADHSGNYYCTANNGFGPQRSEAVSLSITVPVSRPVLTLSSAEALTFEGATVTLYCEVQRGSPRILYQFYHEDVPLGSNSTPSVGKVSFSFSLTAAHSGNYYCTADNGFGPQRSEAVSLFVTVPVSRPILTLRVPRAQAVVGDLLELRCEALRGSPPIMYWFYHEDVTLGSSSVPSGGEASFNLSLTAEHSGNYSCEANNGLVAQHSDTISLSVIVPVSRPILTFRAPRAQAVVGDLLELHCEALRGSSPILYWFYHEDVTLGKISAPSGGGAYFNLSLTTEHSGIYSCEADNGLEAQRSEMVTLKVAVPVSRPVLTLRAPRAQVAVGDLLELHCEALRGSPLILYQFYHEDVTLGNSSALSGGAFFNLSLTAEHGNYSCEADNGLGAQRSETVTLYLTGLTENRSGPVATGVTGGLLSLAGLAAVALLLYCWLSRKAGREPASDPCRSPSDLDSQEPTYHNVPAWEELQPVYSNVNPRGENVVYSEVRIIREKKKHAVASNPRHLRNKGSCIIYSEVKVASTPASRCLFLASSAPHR

B1: 1G7.v85/38E4.v1 TDB (bispecific antibody, V domains shown)
VH 1: EVQLVESGPGLVKPSETLSLTCTVSGFSLTRFGVHWVRQPPGKGLEWLGVIWRGGSTDYNAAFVSRLTISKDNSKNQVSLKLSSVTAADTAVYYCSNHYYGSSDYALDNWGQGTLVTVSS
VL 1: DIQMTQSPSSLSASVGDRVTITCKASQDVRNLVVWFQQKPGKAPKLLIYSGSYRYSGVPSRFSGSGSGTDFTLTISSLQPEDFATYYCQQHYSPPYTFGQGTKVEIK
VH 2: EVQLVQSGAEVKKPGASVKVSCKASGFTFTSYYIHWVRQAPGQGLEWIGWIYPENDNTKYNEKFKDRVTITADTSTSTAYLELSSLRSEDTAVYYCARDGYSRYYFDYWGQGTLVTVSS
VL 2: DIVMTQSPDSLAVSLGERATINCKSSQSLLNSRTRKNYLAWYQQKPGQSPKLLIYWTSTRKSGVPDRFSGSGSGTDFTLTISSLQAEDVAVYYCKQSFILRTFGQGTKVEIK
notes: knob-into-hole TDB; also called 1G7.v85 TDB; 1G7.v85 (TDB format)
For B1, the Kd [1] was 2.35 nM, the koff [1] was 0.00104 s⁻¹ and the kon [1] was 441000 M⁻¹ s⁻¹. For the same binder, the Kd [2] was 6.76 nM, the koff [2] was 0.000847 s⁻¹ and the kon [2] was 125000 M⁻¹ s⁻¹.

B2: 15G8 (antibody, mouse IgG2a, V domains shown)
VH: EVQLQQSGPELVKPGASVKMSCKASGYTFTNYVIHWMKQKPGQGLEWIGYISPYNDYTKYNEKFEGKATLTSDKSSNTAYMELSSLTSEDSAVYYCARRDYYGSSDYWGQGTTLTVSS
VL: QIVLTQSPAIMSASPGEKVTMTCSASSSVDYMHWYQQKSGTSPKKWIYDTSKLASGVPARFSGSGSGTSYSLTIGSMEAEDAATYYCQQWSSNPPTFGGGTKLEIK
notes: mouse mAb, Campaign C; recombinant murine IgG2a for SPR; also called mAb 15G8
For B2, the “KD difference between human and cynomolgus E11 domains” value [3] was about 20 fold.

B3: 17B1 (antibody, mouse IgG2a, V domains shown)
VH: QVQLQQSGPELVRPGVSVKISCKGSGYTFTHYAMHWVKQSHTKSLEWIGMISSSSGNTNFNQKFMDKATMTVDKSSTTAYLELARLTFGDSAIYYCARWSYYALFDYWGQGTTVTVSS
VL: ENVLTQSPAIMSASPGEKVTMTCSADSSVDYIHWYQQKSNTSPKLWIYDTSKLASGVPGRFSGSGSGNSYSLTISSMEAEDFATYYCFQGSGYPLTFGSGTKLELK
notes: mouse mAb, Campaign C; recombinant murine IgG2a for SPR
B3: binds [4].
